Reference: patent CN115703834A (BOAOXIN BIOTECHNOLOGY NANJING CO LTD, dated 2023)

What was measured:
[1] = molecular target: T1, 人CD47 (表面过表达人CD47的293F细胞) (human, UniProt Q08722 19-323); experiment: flow cytometry on 293F cells overexpressing human CD47
T1 construct: whole, on cells; also called 表面过表达人CD47的稳定细胞系293F

[2] = molecular target: T2, 重组人CD47-his蛋白 (ACRO biosystems, cat#CD7-H5227, MW 15.6 kDa) (human, UniProt Q08722 19-139, biotin-labelled in the ELISA assays (sites not given); unlabelled in Biacore); experiment: SPR (Biacore T200), antibody captured on goat anti-mouse IgG, CD47-his in flow
T2 construct: Bought protein; The same catalogue number is used unlabelled (SPR) and biotin-labelled (ELISAs); also called 人CD47蛋白; 生物素标记的人CD47; not shown: His tag
T2 sequence (Q08722 19-139 limits assumed): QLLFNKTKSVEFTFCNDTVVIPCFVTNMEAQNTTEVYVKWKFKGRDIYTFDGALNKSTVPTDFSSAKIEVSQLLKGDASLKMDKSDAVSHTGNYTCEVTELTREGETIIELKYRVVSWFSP

T1 sequence (Q08722 19-323): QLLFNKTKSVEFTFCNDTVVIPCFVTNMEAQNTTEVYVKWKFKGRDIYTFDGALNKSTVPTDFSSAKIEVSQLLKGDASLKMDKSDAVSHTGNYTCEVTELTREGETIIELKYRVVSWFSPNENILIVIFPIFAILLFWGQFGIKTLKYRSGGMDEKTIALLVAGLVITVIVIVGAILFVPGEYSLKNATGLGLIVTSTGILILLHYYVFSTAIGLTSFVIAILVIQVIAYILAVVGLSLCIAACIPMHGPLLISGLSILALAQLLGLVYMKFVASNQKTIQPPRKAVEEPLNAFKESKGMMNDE

binding result [1]: binds
binding result [2]: binds
B1: 抗人CD47单克隆抗体1A5 (antibody, V domains shown)
VH: EVQLQQSGAELVRSGASVTLSCTASGFNIKDYYMNWVKQRPEQGLEWIGWIGPENGDTENDPRFQGKATMTADTSSNTAFLQLSSLTSEDTAFYYCNAGGRGGFPYWGQGTLVTVST
VL: DILLTQTPLSLPVSLGDQASFSCRSSQNIVHINGKTYLEWYLQKPGQSPKLLIYRVSNRFSGVPDRFSGSGSGTDFTLKISRVEAEDLGVYYCFQGSHVPRTFGGGTKLEIK
notes: also called 本发明的单克隆抗体1A5; 本发明的抗体1A5
